Test results as given in paper PMC4340503 (Nature, 2008).
Where no end group is shown, it is not given here. [ ]: non-standard residue; d: D form. pS = N[C@@H](COP(=O)(O)O)C(=O)O

Target: σ2 subunit of the AP2 core (σ2-adaptin 1-143) (mouse, UniProt P62743 1-142)
Assay: crystal structure

Chain of σ2 subunit of the AP2 core (σ2-adaptin 1-143) (P62743 whole entry, looked up, tested part not stated): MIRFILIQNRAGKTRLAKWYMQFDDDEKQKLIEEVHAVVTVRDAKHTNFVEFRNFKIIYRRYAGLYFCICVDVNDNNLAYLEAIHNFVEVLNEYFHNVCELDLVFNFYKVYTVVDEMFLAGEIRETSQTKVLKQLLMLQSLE

binding result: binds
Binder: RM[pS]QIKRLLSE [CD4 dileucine peptide RM(phosphoS)QIKRLLSE (Q peptide), as co-crystallised]
